Experimental data taken from paper PMC5062617, “Nop9 is a PUF-like protein that prevents premature cleavage to correctly process pre-18S rRNA”.

What was measured:
Assay in all cases: EMSA; EMSA: 10 mM HEPES, 150 mM NaCl, 0.01% Tween-20, 0.1 mg/ml BSA, 1 mM TCEP, 4 °C, 40 min; RNA <50 pM
Nop9 (46-645) [1] = target: T1, Nop9 (46-645) (Saccharomyces cerevisiae, UniProt P47077 46-645); settings: protein: recombinant, tags: none (SUMO cleaved), hairpin
T1 sequence: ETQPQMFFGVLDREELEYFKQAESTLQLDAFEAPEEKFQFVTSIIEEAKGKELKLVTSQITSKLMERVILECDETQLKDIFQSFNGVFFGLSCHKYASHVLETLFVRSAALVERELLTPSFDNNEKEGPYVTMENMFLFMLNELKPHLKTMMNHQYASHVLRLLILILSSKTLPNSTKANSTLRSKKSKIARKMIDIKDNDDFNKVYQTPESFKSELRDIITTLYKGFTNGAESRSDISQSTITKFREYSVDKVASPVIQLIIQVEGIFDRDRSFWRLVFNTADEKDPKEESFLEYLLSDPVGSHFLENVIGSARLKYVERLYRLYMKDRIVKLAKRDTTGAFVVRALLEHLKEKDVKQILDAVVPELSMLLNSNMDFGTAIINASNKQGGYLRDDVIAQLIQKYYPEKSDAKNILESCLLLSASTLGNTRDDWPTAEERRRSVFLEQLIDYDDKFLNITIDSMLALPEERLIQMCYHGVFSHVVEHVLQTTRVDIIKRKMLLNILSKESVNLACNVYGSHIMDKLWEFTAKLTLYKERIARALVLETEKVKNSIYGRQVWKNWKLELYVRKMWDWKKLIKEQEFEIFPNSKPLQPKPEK

Nop9 (46-645) [2] = target: T1, Nop9 (46-645); settings: protein: recombinant; tags: none (SUMO cleaved); label: 5' 32P; hairpin, 5' flank
Nop9 full-length = target: T2, Nop9 full-length (Saccharomyces cerevisiae, UniProt P47077 1-666); settings: protein: recombinant; tags: none (SUMO cleaved); label: 5' 32P; hairpin, 5' flank
T2 sequence: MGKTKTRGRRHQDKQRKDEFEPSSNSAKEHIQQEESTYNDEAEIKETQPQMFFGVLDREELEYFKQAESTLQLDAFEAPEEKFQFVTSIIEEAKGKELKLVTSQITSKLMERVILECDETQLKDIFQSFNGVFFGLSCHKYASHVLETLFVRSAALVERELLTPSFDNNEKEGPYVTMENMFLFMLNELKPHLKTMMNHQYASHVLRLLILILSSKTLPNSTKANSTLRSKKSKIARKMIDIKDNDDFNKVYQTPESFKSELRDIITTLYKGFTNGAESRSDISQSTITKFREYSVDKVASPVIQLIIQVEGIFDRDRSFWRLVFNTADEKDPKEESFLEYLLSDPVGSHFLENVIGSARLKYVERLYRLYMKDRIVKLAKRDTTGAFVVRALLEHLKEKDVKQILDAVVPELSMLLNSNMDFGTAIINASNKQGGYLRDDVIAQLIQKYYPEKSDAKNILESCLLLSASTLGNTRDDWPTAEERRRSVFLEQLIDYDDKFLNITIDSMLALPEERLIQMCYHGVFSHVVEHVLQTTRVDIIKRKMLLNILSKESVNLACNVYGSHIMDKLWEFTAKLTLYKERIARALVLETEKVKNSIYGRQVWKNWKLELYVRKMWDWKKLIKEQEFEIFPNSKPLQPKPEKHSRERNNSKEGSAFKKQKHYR

Nop9 (46-645) [3] = target: T1, Nop9 (46-645); settings: protein: recombinant; tags: none (SUMO cleaved); label: 5' 32P; hairpin, 5' flank; remark: listed apart in the source

B1: Subdomain A Δ5'1-15, Δ3' (structured_RNA)
RNA: GGUUUGAAAAUGGAUUUUUUUGUUUUAUAGGACAAUUAAAACCGUUUCAA
- Kd (Nop9 (46-645) [1]; label: 5' 32P): 346 ± 40 nM

B2: Subdomain A Δ3' (structured_RNA)
RNA: GGAAGAAAUUUAAUAAUUUUGAAAAUGGAUUUUUUUGUUUUAUAGGACAAUUAAAACCGUUUCAA
- Kd (Nop9 (46-645) [1]; label: 5' 32P, 5' flank): 15.7 ± 2.6 nM

B3: V: U-G pairs at stem base (structured_RNA)
RNA: UUUAAUAAUUUUGAAAAUGGAUUUUUUUGUUUUAUAGGACAAUUAAAACCGUUUCGG
- binding signal (Nop9 (46-645) [2]): ~3 fold Kd vs A Δ5'1-6,Δ3'

B4: ITS1 Subdomain C (77-140) (structured_RNA)
RNA: GGAGAGAUGGAGAGUCCAGCCGGGCCUGCGCUUAAGUGCGCGGUCUUGCUAGGCUUGUAAGUUUCU
- Kd (Nop9 (46-645) [1]; label: 5' 32P): 74.4 ± 4.1 nM

B5: ITS1 Subdomain B (39-77_140-183) (structured_RNA)
RNA: GGUGGCAAGAGCAUGAGAGCUUUUACUGGGCAAGAAGACAAUUUCUUGCUAUUCCAAACGGUGAGAGAUUUCUGUGCUUUUGUUA
- Kd (Nop9 (46-645) [1]; label: 5' 32P): 105 ± 2.9 nM

B6: Subdomain A Δ5'1-12, Δ3' (structured_RNA)
RNA: GGAAUUUUGAAAAUGGAUUUUUUUGUUUUAUAGGACAAUUAAAACCGUUUCAA
- Kd (Nop9 (46-645) [1]; label: 5' 32P, 5' flank): 18.2 ± 1.9 nM

B7: ITS1 Subdomain A (1-38_184-212) (structured_RNA)
RNA: GGAAGAAAUUUAAUAAUUUUGAAAAUGGAUUUUUUUGUUUUAUAGGACAAUUAAAACCGUUUCAAUACAAC
- Kd (Nop9 (46-645) [1]; label: 5' 32P (EMSA), 5' and 3' single-stranded flanks): 2.4 ± 0.3 nM

B8: Subdomain A Δ5'1-6, Δ3' (structured_RNA)
RNA: GGUUUAAUAAUUUUGAAAAUGGAUUUUUUUGUUUUAUAGGACAAUUAAAACCGUUUCAA
- Kd (Nop9 (46-645) [1]; label: 5' 32P, 5' flank): 11.8 ± 0.4 nM
- Kd (Nop9 full-length): 10.1 ± 1 nM

B9: III: UU(17-18)GC, AA(205-206)GC (structured_RNA)
RNA: GGUUUAAUAAUUGCGAAAAUGGAUUUUUUUGUUUUAUAGGACAAUUAAAACCGUUUCGC
- binding signal (Nop9 (46-645) [3]): ~4 fold Kd vs A Δ5'1-6,Δ3'

B10: II: U16G (structured_RNA)
RNA: GGUUUAAUAAUGUUGAAAAUGGAUUUUUUUGUUUUAUAGGACAAUUAAAACCGUUUCAA
- Kd (Nop9 (46-645) [1]; label: 5' 32P, 5' flank): 47.7 ± 1.8 nM

B11: AAU(10-12)CCC, A Δ5'1-6, Δ3' (structured_RNA)
RNA: GGUUUCCCAAUUUUGAAAAUGGAUUUUUUUGUUUUAUAGGACAAUUAAAACCGUUUCAA
- Kd (Nop9 (46-645) [1]; label: 5' 32P, 5' flank): 8.5 ± 0.6 nM

B12: IV: stem base strands reversed (UUG17-19AAC, CAA204-206GUU) (structured_RNA)
RNA: GGUUUAAUAAUUAACAAAAUGGAUUUUUUUGUUUUAUAGGACAAUUAAAACCGUUUGUU
- binding result (Nop9 (46-645) [1]; label: 5' 32P, 5' flank): binds

B13: UUU(7-9)GGG, A Δ5'1-6, Δ3' (structured_RNA)
RNA: GGGGGAAUAAUUUUGAAAAUGGAUUUUUUUGUUUUAUAGGACAAUUAAAACCGUUUCAA
- Kd (Nop9 (46-645) [1]; label: 5' 32P, 5' flank): 6.6 ± 0.3 nM

B14: AAU(13-15)CCC, A Δ5'1-6, Δ3' (structured_RNA)
RNA: GGUUUAAUCCCUUUGAAAAUGGAUUUUUUUGUUUUAUAGGACAAUUAAAACCGUUUCAA
- Kd (Nop9 (46-645) [1]; label: 5' 32P, 5' flank): 27.6 ± 3.7 nM

B15: nt 20-22 mutant, pairing kept (structured_RNA)
RNA: GGUUUAAUAAUUUUGCCCAUGGAUUUUUUUGUUUUAUAGGACAAUUAAAACCGGGGCAA
- binding result (Nop9 (46-645) [1]; label: 5' 32P, 5' flank): binds

B16: U16A (structured_RNA)
RNA: GGUUUAAUAAUAUUGAAAAUGGAUUUUUUUGUUUUAUAGGACAAUUAAAACCGUUUCAA
- Kd (Nop9 (46-645) [1]; label: 5' 32P, 5' flank): 62.3 ± 4.9 nM

B17: I: UUU(16-18)GGC, AA(205-206)GC (structured_RNA)
RNA: GGUUUAAUAAUGGCGAAAAUGGAUUUUUUUGUUUUAUAGGACAAUUAAAACCGUUUCGC
- Kd (Nop9 (46-645) [1]; label: 5' 32P, 5' flank): 103 ± 12 nM

B18: nt 27-30 mutant, pairing kept (structured_RNA)
RNA: GGUUUAAUAAUUUUGAAAAUGGGCGCUUUUGUUUUAUAGGACAAUUGCGCCCGUUUCAA
- binding result (Nop9 (46-645) [1]; label: 5' 32P, 5' flank): binds
